This note sets out measurements from article PMC3430870 (Nature structural & molecular biology, 2011).

Read-outs that look alike come from different tables or passages of the source.

Experiment in all cases: SPR
A general note: Surface plasmon resonance follows binding to a sensor surface in real time, without labels.

Assay [1] has as its target T1, mouse Wnt3a (mouse, UniProt P27467 19-352).
In assay [2] the target is T1, mouse Wnt3a. The source holds these as a separate data set.
In assay [3] the target is T1, mouse Wnt3a. The source holds these as a separate data set.
In assay [4] the target is T1, mouse Wnt3a. The source holds these as a separate data set.
Assay [5] addresses T1, mouse Wnt3a. The source holds these as a separate data set.

T1 sequence (P27467 19-352): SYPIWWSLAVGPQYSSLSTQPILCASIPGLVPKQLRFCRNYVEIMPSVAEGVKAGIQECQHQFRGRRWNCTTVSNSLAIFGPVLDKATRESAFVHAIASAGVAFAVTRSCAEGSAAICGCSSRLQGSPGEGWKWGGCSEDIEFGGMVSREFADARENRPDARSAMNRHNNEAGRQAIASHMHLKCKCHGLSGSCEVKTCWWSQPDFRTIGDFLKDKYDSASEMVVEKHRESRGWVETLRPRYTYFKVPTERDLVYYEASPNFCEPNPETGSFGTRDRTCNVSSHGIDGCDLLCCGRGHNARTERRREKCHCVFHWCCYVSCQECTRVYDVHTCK

B1: WIF-1ΔC (human WIF-1 residues 35-346) (domain or fragment, UniProt Q9Y5W5 35-346, looked up)
chain: SLYLWIDAHQARVLIGFEEDILIVSEGKMAPFTHDFRKAQQRMPAIPVNIHSMNFTWQAAGQAEYFYEFLSLRSLDKGIMADPTVNVPLLGTVPHKASVVQVGFPCLGKQDGVAAFEVDVIVMNSEGNTILKTPQNAIFFKTCQQAECPGGCRNGGFCNERRICECPDGFHGPHCEKALCTPRCMNGGLCVTPGFCICPPGFYGVNCDKANCSTTCFNGGTCFYPGKCICPPGLEGEQCEISKCPQPCRNGGKCIGKSKCKCSKGYQGDLCSKPVCEPGCGAHGTCHEPNKCQCQEGWHGRHCNKRYEASLI
A word on the Kd: it is the equilibrium constant for the complex coming apart. Lower therefore signals tighter binding. Molecule B1 showed an equilibrium dissociation constant (Kd) with mouse Wnt3a [1] of 0.0216 µM.

B2: WIF-1ΔC Met77Trp (domain or fragment, human, UniProt Q9Y5W5 35-346, looked up)
chain: SLYLWIDAHQARVLIGFEEDILIVSEGKMAPFTHDFRKAQQRWPAIPVNIHSMNFTWQAAGQAEYFYEFLSLRSLDKGIMADPTVNVPLLGTVPHKASVVQVGFPCLGKQDGVAAFEVDVIVMNSEGNTILKTPQNAIFFKTCQQAECPGGCRNGGFCNERRICECPDGFHGPHCEKALCTPRCMNGGLCVTPGFCICPPGFYGVNCDKANCSTTCFNGGTCFYPGKCICPPGLEGEQCEISKCPQPCRNGGKCIGKSKCKCSKGYQGDLCSKPVCEPGCGAHGTCHEPNKCQCQEGWHGRHCNKRYEASLI
In the assay with mouse Wnt3a [1], B2 returned a Kd of 0.217 µM.

B3: WIF-1WD (WIF domain of human Wnt inhibitory factor 1, residues 35-178) (domain or fragment, UniProt Q9Y5W5 35-178, looked up)
chain: SLYLWIDAHQARVLIGFEEDILIVSEGKMAPFTHDFRKAQQRMPAIPVNIHSMNFTWQAAGQAEYFYEFLSLRSLDKGIMADPTVNVPLLGTVPHKASVVQVGFPCLGKQDGVAAFEVDVIVMNSEGNTILKTPQNAIFFKTCQ
On to B3, for which binding with mouse Wnt3a [1] was put at a Kd of 3.4 µM.

B4: WIF-1_(EGFs I-V) (human WIF-1 residues 178-346) (domain or fragment, UniProt Q9Y5W5 178-346, looked up)
chain: QQAECPGGCRNGGFCNERRICECPDGFHGPHCEKALCTPRCMNGGLCVTPGFCICPPGFYGVNCDKANCSTTCFNGGTCFYPGKCICPPGLEGEQCEISKCPQPCRNGGKCIGKSKCKCSKGYQGDLCSKPVCEPGCGAHGTCHEPNKCQCQEGWHGRHCNKRYEASLI
With B4, the equilibrium dissociation constant (Kd) with mouse Wnt3a [1] turned out to be 0.9 µM.

B5: WIF-1_(WD-EGFs I-III) (human WIF-1 residues 35-274) (domain or fragment, UniProt Q9Y5W5 35-274, looked up)
chain: SLYLWIDAHQARVLIGFEEDILIVSEGKMAPFTHDFRKAQQRMPAIPVNIHSMNFTWQAAGQAEYFYEFLSLRSLDKGIMADPTVNVPLLGTVPHKASVVQVGFPCLGKQDGVAAFEVDVIVMNSEGNTILKTPQNAIFFKTCQQAECPGGCRNGGFCNERRICECPDGFHGPHCEKALCTPRCMNGGLCVTPGFCICPPGFYGVNCDKANCSTTCFNGGTCFYPGKCICPPGLEGEQCE
B5 gave a Kd with mouse Wnt3a [1] of 3.21 µM.

B6: WIF-1_(WD-EGF-I) (human WIF-1 residues 35-210) (domain or fragment, UniProt Q9Y5W5 35-210, looked up)
chain: SLYLWIDAHQARVLIGFEEDILIVSEGKMAPFTHDFRKAQQRMPAIPVNIHSMNFTWQAAGQAEYFYEFLSLRSLDKGIMADPTVNVPLLGTVPHKASVVQVGFPCLGKQDGVAAFEVDVIVMNSEGNTILKTPQNAIFFKTCQQAECPGGCRNGGFCNERRICECPDGFHGPHCE
On to B6, for which the Kd worked out at 16.8 µM with mouse Wnt3a [2]; 15.9 µM with mouse Wnt3a [3]; 16.9 µM with mouse Wnt3a [4]; 9.86 µM with mouse Wnt3a [5]; 5.6 µM in the assay with mouse Wnt3a [1].

B7: WIF-1_(WD-EGF-I) Met77Trp (domain or fragment, human, UniProt Q9Y5W5 35-210, looked up)
chain: SLYLWIDAHQARVLIGFEEDILIVSEGKMAPFTHDFRKAQQRWPAIPVNIHSMNFTWQAAGQAEYFYEFLSLRSLDKGIMADPTVNVPLLGTVPHKASVVQVGFPCLGKQDGVAAFEVDVIVMNSEGNTILKTPQNAIFFKTCQQAECPGGCRNGGFCNERRICECPDGFHGPHCE
In the assay with mouse Wnt3a [1], B7 yielded a dissociation constant Kd of 2.86 µM.
